Results taken from IntAct's records for PubMed 29892012.

B1: Abl interactor 2 (Homo sapiens), Q9NYB9 (parent)
chain: MAELQMLLEEEIPGGRRALFDSYTNLERVADYCENNYIQSADKQRALEETKAYTTQSLASVAYLINTLANNVLQMLDIQASQLRRMESSINHISQTVDIHKEKVARREIGILTTNKNTSRTHKIIAPANLERPVRYIRKPIDYTILDDIGHGVKWLLRFKVSTQNMKMGGLPRTTPPTQKPPSPPMSGKGTLGRHSPYRTLEPVRPPVVPNDYVPSPTRNMAPSQQSPVRTASVNQRNRTYSSSGSSGGSHPSSRSSSRENSGSGSVGVPIAVPTPSPPSVFPAPAGSAGTPPLPATSASAPAPLVPATVPSSTAPNAAAGGAPNLADGFTSPTPPVVSSTPPTGHPVQFYSMNRPASRHTPPTIGGSLPYRRPPSITSQTSLQNQMNGGPFYSQNPVSDTPPPPPPVEEPVFDESPPPPPPPEDYEEEEAAVVEYSDPYAEEDPPWAPRSYLEKVVAIYDYTKDKEDELSFQEGAIIYVIKKNDDGWYEGVMNGVTGLFPGNYVESIMHYSE
partner: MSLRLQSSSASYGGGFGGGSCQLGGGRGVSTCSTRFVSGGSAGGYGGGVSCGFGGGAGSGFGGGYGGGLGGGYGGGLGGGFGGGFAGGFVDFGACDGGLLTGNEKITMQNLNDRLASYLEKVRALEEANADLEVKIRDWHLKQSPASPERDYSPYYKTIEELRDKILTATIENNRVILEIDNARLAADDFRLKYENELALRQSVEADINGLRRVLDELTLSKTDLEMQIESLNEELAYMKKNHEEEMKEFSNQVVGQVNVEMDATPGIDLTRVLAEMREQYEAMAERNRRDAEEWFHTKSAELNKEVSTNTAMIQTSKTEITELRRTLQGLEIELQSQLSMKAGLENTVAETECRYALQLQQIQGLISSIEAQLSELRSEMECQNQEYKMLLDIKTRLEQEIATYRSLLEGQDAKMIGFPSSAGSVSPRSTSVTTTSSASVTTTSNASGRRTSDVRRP
B2: Abl interactor 2 (Homo sapiens), Q9NYB9 (parent)
chain: B1 chain
partner: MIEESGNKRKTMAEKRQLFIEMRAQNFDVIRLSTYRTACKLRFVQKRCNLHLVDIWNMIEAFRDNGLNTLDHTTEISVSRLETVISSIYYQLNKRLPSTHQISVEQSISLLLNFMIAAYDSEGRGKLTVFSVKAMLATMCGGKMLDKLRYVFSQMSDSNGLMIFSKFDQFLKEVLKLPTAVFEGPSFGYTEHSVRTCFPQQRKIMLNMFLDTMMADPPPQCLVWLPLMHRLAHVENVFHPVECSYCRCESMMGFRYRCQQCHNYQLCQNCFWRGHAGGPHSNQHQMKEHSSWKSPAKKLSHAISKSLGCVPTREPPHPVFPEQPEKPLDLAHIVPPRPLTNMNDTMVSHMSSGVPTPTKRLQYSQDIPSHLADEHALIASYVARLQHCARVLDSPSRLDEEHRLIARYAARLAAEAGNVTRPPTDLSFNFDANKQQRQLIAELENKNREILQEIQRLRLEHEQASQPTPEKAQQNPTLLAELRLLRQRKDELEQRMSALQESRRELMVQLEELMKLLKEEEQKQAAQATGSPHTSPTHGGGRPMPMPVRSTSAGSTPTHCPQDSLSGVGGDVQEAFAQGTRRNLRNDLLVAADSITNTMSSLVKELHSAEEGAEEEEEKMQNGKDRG
B3: E3 ubiquitin-protein ligase LNX (Homo sapiens), Q8TBB1 (parent)
chain: MNQPESANDPEPLCAVCGQAHSLEENHFYSYPEEVDDDLICHICLQALLDPLDTPCGHTYCTLCLTNFLVEKDFCPMDRKPLVLQHCKKSSILVNKLLNKLLVTCPFREHCTQVLQRCDLEHHFQTSCKGASHYGLTKDRKRRSQDGCPDGCASLTATAPSPEVSAAATISLMTDEPGLDNPAYVSSAEDGQPAISPVDSGRSNRTRARPFERSTIRSRSFKKINRALSVLRRTKSGSAVANHADQGRENSENTTAPEVFPRLYHLIPDGEITSIKINRVDPSESLSIRLVGGSETPLVHIIIQHIYRDGVIARDGRLLPGDIILKVNGMDISNVPHNYAVRLLRQPCQVLWLTVMREQKFRSRNNGQAPDAYRPRDDSFHVILNKSSPEEQLGIKLVRKVDEPGVFIFNVLDGGVAYRHGQLEENDRVLAINGHDLRYGSPESAAHLIQASERRVHLVVSRQVRQRSPDIFQEAGWNSNGSWSPGPGERSNTPKPLHPTITCHEKVVNIQKDPGESLGMTVAGGASHREWDLPIYVISVEPGGVISRDGRIKTGDILLNVDGVELTEVSRSEAVALLKRTSSSIVLKALEVKEYEPQEDCSSPAALDSNHNMAPPSDWSPSWVMWLELPRCLYNCKDIVLRRNTAGSLGFCIVGGYEEYNGNKPFFIKSIVEGTPAYNDGRIRCGDILLAVNGRSTSGMIHACLARLLKELKGRITLTIVSWPGTFL
partner: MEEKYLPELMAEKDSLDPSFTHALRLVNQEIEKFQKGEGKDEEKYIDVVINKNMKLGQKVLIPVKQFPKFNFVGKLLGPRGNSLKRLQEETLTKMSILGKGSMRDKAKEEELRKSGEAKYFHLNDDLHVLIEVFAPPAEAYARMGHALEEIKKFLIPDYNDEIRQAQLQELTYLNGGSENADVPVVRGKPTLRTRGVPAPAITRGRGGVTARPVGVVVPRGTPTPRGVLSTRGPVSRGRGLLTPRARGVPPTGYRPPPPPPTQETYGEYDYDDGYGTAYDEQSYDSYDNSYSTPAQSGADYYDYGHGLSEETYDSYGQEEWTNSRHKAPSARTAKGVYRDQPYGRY
B4: Abl interactor 2 (Homo sapiens), Q9NYB9 (parent)
chain: B1 chain
partner: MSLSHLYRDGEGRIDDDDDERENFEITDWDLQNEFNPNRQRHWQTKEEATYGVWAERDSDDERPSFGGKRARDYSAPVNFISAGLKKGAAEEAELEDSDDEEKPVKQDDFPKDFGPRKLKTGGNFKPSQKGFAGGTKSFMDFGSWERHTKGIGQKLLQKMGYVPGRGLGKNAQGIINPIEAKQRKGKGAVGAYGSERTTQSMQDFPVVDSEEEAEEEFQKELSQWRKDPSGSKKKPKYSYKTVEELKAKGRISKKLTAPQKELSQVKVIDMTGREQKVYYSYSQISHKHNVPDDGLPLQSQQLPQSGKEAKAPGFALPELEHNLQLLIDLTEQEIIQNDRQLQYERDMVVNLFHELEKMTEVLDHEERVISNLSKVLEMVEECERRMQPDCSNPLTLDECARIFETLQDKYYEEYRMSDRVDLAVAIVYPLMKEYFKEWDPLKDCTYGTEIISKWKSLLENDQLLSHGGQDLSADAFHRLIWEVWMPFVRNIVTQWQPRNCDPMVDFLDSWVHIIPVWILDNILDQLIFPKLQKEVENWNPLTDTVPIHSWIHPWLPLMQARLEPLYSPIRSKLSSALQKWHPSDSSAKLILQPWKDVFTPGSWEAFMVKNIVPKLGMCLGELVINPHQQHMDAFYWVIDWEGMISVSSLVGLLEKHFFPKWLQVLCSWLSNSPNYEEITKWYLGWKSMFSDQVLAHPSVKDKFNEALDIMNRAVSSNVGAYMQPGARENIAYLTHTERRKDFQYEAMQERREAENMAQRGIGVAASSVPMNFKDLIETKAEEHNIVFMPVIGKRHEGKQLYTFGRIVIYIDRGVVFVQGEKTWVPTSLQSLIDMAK
B5: Rho guanine nucleotide exchange factor 3 (Homo sapiens), Q9NR81 (parent)
chain: MVAKDYPFYLTVKRANCSLELPPASGPAKDAEEPSNKRVKPLSRVTSLANLIPPVKATPLKRFSQTLQRSISFRSESRPDILAPRPWSRNAAPSSTKRRDSKLWSETFDVCVNQMLTSKEIKRQEAIFELSQGEEDLIEDLKLAKKAYHDPMLKLSIMTEQELNQIFGTLDSLIPLHEELLSQLRDVRKPDGSTEHVGPILVGWLPCLSSYDSYCSNQVAAKALLDHKKQDHRVQDFLQRCLESPFSRKLDLWNFLDIPRSRLVKYPLLLREILRHTPNDNPDQQHLEEAINIIQGIVAEINTKTGESECRYYKERLLYLEEGQKDSLIDSSRVLCCHGELKNNRGVKLHVFLFQEVLVITRAVTHNEQLCYQLYRQPIPVKDLLLEDLQDGEVRLGGSLRGAFSNNERIKNFFRVSFKNGSQSQTHSLQANDTFNKQQWLNCIRQAKETVLCAAGQAGVLDSEGSFLNPTTGSRELQGETKLEQMDQSDSESDCSMDTSEVSLDCERMEQTDSSCGNSRHGESNV
B6: E3 ubiquitin-protein ligase LNX (Homo sapiens), Q8TBB1 (parent)
chain: B3 chain
partner: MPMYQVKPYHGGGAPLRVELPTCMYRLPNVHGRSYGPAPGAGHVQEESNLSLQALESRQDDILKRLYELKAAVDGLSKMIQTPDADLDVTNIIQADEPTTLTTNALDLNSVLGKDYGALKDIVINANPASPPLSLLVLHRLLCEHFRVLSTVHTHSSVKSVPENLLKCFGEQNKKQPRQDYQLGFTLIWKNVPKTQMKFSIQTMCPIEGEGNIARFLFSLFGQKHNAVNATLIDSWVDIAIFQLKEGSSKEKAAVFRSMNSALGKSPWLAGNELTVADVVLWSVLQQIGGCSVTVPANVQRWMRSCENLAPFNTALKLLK
B7: E3 ubiquitin-protein ligase LNX (Homo sapiens), Q8TBB1 (parent)
chain: B3 chain
partner: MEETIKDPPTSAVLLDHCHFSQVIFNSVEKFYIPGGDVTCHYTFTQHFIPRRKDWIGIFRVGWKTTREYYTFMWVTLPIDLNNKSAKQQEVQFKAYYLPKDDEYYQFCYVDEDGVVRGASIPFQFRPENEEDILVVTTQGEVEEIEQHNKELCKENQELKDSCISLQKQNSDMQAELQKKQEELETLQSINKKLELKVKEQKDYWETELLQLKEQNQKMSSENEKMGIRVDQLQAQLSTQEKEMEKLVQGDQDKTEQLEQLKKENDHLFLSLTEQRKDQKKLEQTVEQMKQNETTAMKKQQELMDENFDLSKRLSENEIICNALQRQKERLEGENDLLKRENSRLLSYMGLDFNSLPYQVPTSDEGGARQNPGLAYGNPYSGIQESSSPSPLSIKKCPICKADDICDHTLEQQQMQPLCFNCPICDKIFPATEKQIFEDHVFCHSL
B8: MOB kinase activator 3C (Homo sapiens), Q70IA8 (parent)
chain: MALCLKQVFAKDKTFRPRKRFEPGTQRFELYKKAQASLKSGLDLRSVVRLPPGENIDDWIAVHVVDFFNRINLIYGTMAERCSETSCPVMAGGPRYEYRWQDERQYRRPAKLSAPRYMALLMDWIEGLINDEEVFPTRVGVPFPKNFQQVCTKILTRLFRVFVHVYIHHFDSILSMGAEAHVNTCYKHFYYFIREFSLVDQRELEPLREMTERICH
partner: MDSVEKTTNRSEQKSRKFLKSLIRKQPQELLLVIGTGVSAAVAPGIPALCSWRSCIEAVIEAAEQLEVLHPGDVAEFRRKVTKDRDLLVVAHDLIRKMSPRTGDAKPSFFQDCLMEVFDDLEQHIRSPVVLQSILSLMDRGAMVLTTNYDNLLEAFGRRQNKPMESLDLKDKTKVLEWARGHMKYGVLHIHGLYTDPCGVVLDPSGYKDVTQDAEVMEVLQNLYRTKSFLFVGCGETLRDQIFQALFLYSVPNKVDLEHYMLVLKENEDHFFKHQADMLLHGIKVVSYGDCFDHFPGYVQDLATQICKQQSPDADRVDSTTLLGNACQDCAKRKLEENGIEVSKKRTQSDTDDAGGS
B9: E3 ubiquitin-protein ligase LNX (Homo sapiens), Q8TBB1 (parent)
chain: B3 chain
partner: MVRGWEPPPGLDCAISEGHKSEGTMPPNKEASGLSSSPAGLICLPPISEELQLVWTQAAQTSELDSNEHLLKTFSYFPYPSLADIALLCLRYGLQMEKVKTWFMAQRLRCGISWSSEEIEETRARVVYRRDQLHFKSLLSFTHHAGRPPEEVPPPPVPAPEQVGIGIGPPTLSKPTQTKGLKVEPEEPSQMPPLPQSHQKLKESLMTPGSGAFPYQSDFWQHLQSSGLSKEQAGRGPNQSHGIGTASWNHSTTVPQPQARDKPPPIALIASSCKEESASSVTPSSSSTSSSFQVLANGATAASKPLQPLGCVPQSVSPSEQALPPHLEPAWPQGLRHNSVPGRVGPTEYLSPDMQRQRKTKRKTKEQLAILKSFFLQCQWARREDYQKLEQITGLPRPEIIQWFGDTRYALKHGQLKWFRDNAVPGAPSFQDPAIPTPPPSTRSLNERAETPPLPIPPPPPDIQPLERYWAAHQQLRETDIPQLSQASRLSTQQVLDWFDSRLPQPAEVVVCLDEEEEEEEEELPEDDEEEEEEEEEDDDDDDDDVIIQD

Variants of: B1
Conditions: with KRT13, P13646
In the case of R373C, the “effect of a mutation on the interaction” value is reported as “with no effect”.

Variants of: B2
Conditions: with dtnb_human DTNB
For R373C, the “effect of a mutation on the interaction” value was “with no effect”.

Variants of: B2
Conditions: with dtnb_human DTNB
Remark: another data set of the same source
E202K was tested, and the “effect of a mutation on the interaction” value was “with no effect”.

Variants of: B3
Conditions: with khdr3_human KHDRBS3, O75525
In the case of E295K, the “effect of a mutation on the interaction” value is reported as “disrupting interaction strength”.

Variants of: B4
Conditions: with tfp11_human TFIP11, Q9UBB9
For E202K, the “effect of a mutation on the interaction” value was “with no effect”.

Variants of: B4
Conditions: with tfp11_human TFIP11, Q9UBB9
Remark: another data set of the same source
In the case of R373C, the “effect of a mutation on the interaction” value is reported as “with no effect”.

Variants of: B5
Conditions: with tri23_human TRIM23, P36406
Chain of tri23_human TRIM23, P36406 (P36406 whole entry): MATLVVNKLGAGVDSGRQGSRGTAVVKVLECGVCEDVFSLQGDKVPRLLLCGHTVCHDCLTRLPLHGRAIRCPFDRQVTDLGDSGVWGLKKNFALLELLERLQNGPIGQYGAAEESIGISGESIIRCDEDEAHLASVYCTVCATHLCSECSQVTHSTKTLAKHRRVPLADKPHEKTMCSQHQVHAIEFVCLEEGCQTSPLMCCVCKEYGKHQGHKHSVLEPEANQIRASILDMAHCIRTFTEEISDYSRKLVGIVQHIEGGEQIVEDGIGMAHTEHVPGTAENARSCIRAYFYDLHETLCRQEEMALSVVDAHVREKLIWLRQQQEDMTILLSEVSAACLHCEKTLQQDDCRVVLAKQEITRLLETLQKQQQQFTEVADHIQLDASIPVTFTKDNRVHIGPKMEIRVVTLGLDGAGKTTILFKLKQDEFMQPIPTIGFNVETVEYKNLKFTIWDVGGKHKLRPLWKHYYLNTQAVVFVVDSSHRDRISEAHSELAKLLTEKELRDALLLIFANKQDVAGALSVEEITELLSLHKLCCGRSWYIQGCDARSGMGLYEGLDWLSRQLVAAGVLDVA
In the case of P34S, the “effect of a mutation on the interaction” value is reported as “with no effect”.

Variants of: B6
Conditions: with aimp2_human AIMP2, Q13155
With E295K the “effect of a mutation on the interaction” value was “disrupting interaction strength”.

Variants of: B7
Conditions: with caco2_human CALCOCO2, Q13137
In the case of E295K, the “effect of a mutation on the interaction” value is reported as “disrupting interaction strength”.

Variants of: B8
Conditions: with FAM118A
In the case of I173F, the “effect of a mutation on the interaction” value is reported as “disrupting interaction strength”.

Variants of: B9
Conditions: with homez_human HOMEZ
For E295K, the “effect of a mutation on the interaction” value was “disrupting interaction strength”.
